The target of assay [1] is T1, σ70, native, untagged (pLN12) (Escherichia coli, UniProt P00579 1-613).
T1 construct: range 1-613; also called native ?^70
The assay is described as follows: Ni-NTA co-immobilization, SDS-PAGE.

Assay [2] has as its target T2, HMK-His6-σ70, 32P-labeled (pHMK-His6-σ70) (Escherichia coli, UniProt P00579 1-613).
T2 construct: range 1-613; also called ^32P-labeled ?^70; HMK-?^70
The experiment in a line: far-Western of whole cell lysate, 32P-σ70 probe.

The target in assay [3] is T2, HMK-His6-σ70, 32P-labeled …. The assay is described as follows: far-Western binding, 32P-σ70 probe; grade.

B1: His6-HMK-β′1-280 (pTA523) (enzyme)
chain: MKDLLKFLKAQTKTEEFDAIKIALASPDMIRSWSFGEVKKPETINYRTFKPERDGLFCARIFGPVKDYECLCGKYKRLKHRGVICEKCGVEVTQTKVRRERMGHIELASPTAHIWFLKSLPSRIGLLLDMPLRDIERVLYFESYVVIEGGMTNLERQQILTEEQYLDALEEFGDEFDAKMGAEAIQALLKSMDLEQECEQLREELNETNSETKRKKLTKRIKLLEAFVQSGNKPEWMILTVLPVLPPDLRPLVPLDGGRFATSDLNDLYRRVINRNNRLK
notes: range 1-280
In the case of B1, the binding result in assay [1] was “no binding”.

B2: His6-HMK-β′1-300 (pTA524) (enzyme)
chain: MKDLLKFLKAQTKTEEFDAIKIALASPDMIRSWSFGEVKKPETINYRTFKPERDGLFCARIFGPVKDYECLCGKYKRLKHRGVICEKCGVEVTQTKVRRERMGHIELASPTAHIWFLKSLPSRIGLLLDMPLRDIERVLYFESYVVIEGGMTNLERQQILTEEQYLDALEEFGDEFDAKMGAEAIQALLKSMDLEQECEQLREELNETNSETKRKKLTKRIKLLEAFVQSGNKPEWMILTVLPVLPPDLRPLVPLDGGRFATSDLNDLYRRVINRNNRLKRLLDLAAPDIIVRNEKRMLQ
notes: range 1-300
In the case of B2, in assay [1], the binding result is listed as “no binding”.

B3: His6-tagged β′100-309 (pTA533) (enzyme)
chain: ERMGHIELASPTAHIWFLKSLPSRIGLLLDMPLRDIERVLYFESYVVIEGGMTNLERQQILTEEQYLDALEEFGDEFDAKMGAEAIQALLKSMDLEQECEQLREELNETNSETKRKKLTKRIKLLEAFVQSGNKPEWMILTVLPVLPPDLRPLVPLDGGRFATSDLNDLYRRVINRNNRLKRLLDLAAPDIIVRNEKRMLQEAVDALLDN
Take B3: the binding result in assay [1] is recorded as “binds”.

B4: His6-tagged β′200-309 (pTA538) (enzyme)
chain: QLREELNETNSETKRKKLTKRIKLLEAFVQSGNKPEWMILTVLPVLPPDLRPLVPLDGGRFATSDLNDLYRRVINRNNRLKRLLDLAAPDIIVRNEKRMLQEAVDALLDN
Take B4: the binding result in assay [1] is reported as “binds”.

B5: β′260-309 with C-terminal His6 (pTA546) (enzyme)
chain: FATSDLNDLYRRVINRNNRLKRLLDLAAPDIIVRNEKRMLQEAVDALLDNHHHHHH
With B5, the binding result in assay [1] is “binds”.

B6: β′60-309, untagged (pTA528) (enzyme)
chain: RIFGPVKDYECLCGKYKRLKHRGVICEKCGVEVTQTKVRRERMGHIELASPTAHIWFLKSLPSRIGLLLDMPLRDIERVLYFESYVVIEGGMTNLERQQILTEEQYLDALEEFGDEFDAKMGAEAIQALLKSMDLEQECEQLREELNETNSETKRKKLTKRIKLLEAFVQSGNKPEWMILTVLPVLPPDLRPLVPLDGGRFATSDLNDLYRRVINRNNRLKRLLDLAAPDIIVRNEKRMLQEAVDALLDN
On to B6, for which, in assay [2], the binding result is listed as “binds”.

B7: His6-tagged β′60-309 (pTA532) (enzyme)
chain: RIFGPVKDYECLCGKYKRLKHRGVICEKCGVEVTQTKVRRERMGHIELASPTAHIWFLKSLPSRIGLLLDMPLRDIERVLYFESYVVIEGGMTNLERQQILTEEQYLDALEEFGDEFDAKMGAEAIQALLKSMDLEQECEQLREELNETNSETKRKKLTKRIKLLEAFVQSGNKPEWMILTVLPVLPPDLRPLVPLDGGRFATSDLNDLYRRVINRNNRLKRLLDLAAPDIIVRNEKRMLQEAVDALLDN
B7: in assay [1], the binding result was “binds”.

B8: His6-tagged β′178-309 (pTA537) (enzyme)
chain: AKMGAEAIQALLKSMDLEQECEQLREELNETNSETKRKKLTKRIKLLEAFVQSGNKPEWMILTVLPVLPPDLRPLVPLDGGRFATSDLNDLYRRVINRNNRLKRLLDLAAPDIIVRNEKRMLQEAVDALLDN
Take B8: the binding result in assay [1] is “binds”.

B9: β′1-319 wild type, untagged (pTA620) (enzyme)
chain: MKDLLKFLKAQTKTEEFDAIKIALASPDMIRSWSFGEVKKPETINYRTFKPERDGLFCARIFGPVKDYECLCGKYKRLKHRGVICEKCGVEVTQTKVRRERMGHIELASPTAHIWFLKSLPSRIGLLLDMPLRDIERVLYFESYVVIEGGMTNLERQQILTEEQYLDALEEFGDEFDAKMGAEAIQALLKSMDLEQECEQLREELNETNSETKRKKLTKRIKLLEAFVQSGNKPEWMILTVLPVLPPDLRPLVPLDGGRFATSDLNDLYRRVINRNNRLKRLLDLAAPDIIVRNEKRMLQEAVDALLDNGRRGRAITGS
Regarding B9, in assay [3], the binding result is “binds”.

B10: β′1-319 K280E (pTA613) (enzyme)
chain: MKDLLKFLKAQTKTEEFDAIKIALASPDMIRSWSFGEVKKPETINYRTFKPERDGLFCARIFGPVKDYECLCGKYKRLKHRGVICEKCGVEVTQTKVRRERMGHIELASPTAHIWFLKSLPSRIGLLLDMPLRDIERVLYFESYVVIEGGMTNLERQQILTEEQYLDALEEFGDEFDAKMGAEAIQALLKSMDLEQECEQLREELNETNSETKRKKLTKRIKLLEAFVQSGNKPEWMILTVLPVLPPDLRPLVPLDGGRFATSDLNDLYRRVINRNNRLERLLDLAAPDIIVRNEKRMLQEAVDALLDNGRRGRAITGS
Take B10: in assay [3], the binding result is given as “binds”.

B11: β′1-319 N309D (pTA619) (enzyme)
chain: MKDLLKFLKAQTKTEEFDAIKIALASPDMIRSWSFGEVKKPETINYRTFKPERDGLFCARIFGPVKDYECLCGKYKRLKHRGVICEKCGVEVTQTKVRRERMGHIELASPTAHIWFLKSLPSRIGLLLDMPLRDIERVLYFESYVVIEGGMTNLERQQILTEEQYLDALEEFGDEFDAKMGAEAIQALLKSMDLEQECEQLREELNETNSETKRKKLTKRIKLLEAFVQSGNKPEWMILTVLPVLPPDLRPLVPLDGGRFATSDLNDLYRRVINRNNRLKRLLDLAAPDIIVRNEKRMLQEAVDALLDDGRRGRAITGS
As for B11, the binding result in assay [3] is listed as “binds”.

B12: β′1-319 N266D (pTA610) (enzyme)
chain: MKDLLKFLKAQTKTEEFDAIKIALASPDMIRSWSFGEVKKPETINYRTFKPERDGLFCARIFGPVKDYECLCGKYKRLKHRGVICEKCGVEVTQTKVRRERMGHIELASPTAHIWFLKSLPSRIGLLLDMPLRDIERVLYFESYVVIEGGMTNLERQQILTEEQYLDALEEFGDEFDAKMGAEAIQALLKSMDLEQECEQLREELNETNSETKRKKLTKRIKLLEAFVQSGNKPEWMILTVLPVLPPDLRPLVPLDGGRFATSDLDDLYRRVINRNNRLKRLLDLAAPDIIVRNEKRMLQEAVDALLDNGRRGRAITGS
Turning to B12, the binding result in assay [3] is “binds”.

B13: β′ mutant V272D (enzyme)
chain: MKDLLKFLKAQTKTEEFDAIKIALASPDMIRSWSFGEVKKPETINYRTFKPERDGLFCARIFGPVKDYECLCGKYKRLKHRGVICEKCGVEVTQTKVRRERMGHIELASPTAHIWFLKSLPSRIGLLLDMPLRDIERVLYFESYVVIEGGMTNLERQQILTEEQYLDALEEFGDEFDAKMGAEAIQALLKSMDLEQECEQLREELNETNSETKRKKLTKRIKLLEAFVQSGNKPEWMILTVLPVLPPDLRPLVPLDGGRFATSDLNDLYRRDINRNNRLKRLLDLAAPDIIVRNEKRMLQEAVDALLDNGRRGRAITGS
On to B13, for which, in assay [3], the binding result is given as “no binding”.

B14: β′ mutant N274P (enzyme)
chain: MKDLLKFLKAQTKTEEFDAIKIALASPDMIRSWSFGEVKKPETINYRTFKPERDGLFCARIFGPVKDYECLCGKYKRLKHRGVICEKCGVEVTQTKVRRERMGHIELASPTAHIWFLKSLPSRIGLLLDMPLRDIERVLYFESYVVIEGGMTNLERQQILTEEQYLDALEEFGDEFDAKMGAEAIQALLKSMDLEQECEQLREELNETNSETKRKKLTKRIKLLEAFVQSGNKPEWMILTVLPVLPPDLRPLVPLDGGRFATSDLNDLYRRVIPRNNRLKRLLDLAAPDIIVRNEKRMLQEAVDALLDNGRRGRAITGS
As for B14, the binding result in assay [3] is “no binding”.

B15: β′ mutant L299D (enzyme)
chain: MKDLLKFLKAQTKTEEFDAIKIALASPDMIRSWSFGEVKKPETINYRTFKPERDGLFCARIFGPVKDYECLCGKYKRLKHRGVICEKCGVEVTQTKVRRERMGHIELASPTAHIWFLKSLPSRIGLLLDMPLRDIERVLYFESYVVIEGGMTNLERQQILTEEQYLDALEEFGDEFDAKMGAEAIQALLKSMDLEQECEQLREELNETNSETKRKKLTKRIKLLEAFVQSGNKPEWMILTVLPVLPPDLRPLVPLDGGRFATSDLNDLYRRVINRNNRLKRLLDLAAPDIIVRNEKRMDQEAVDALLDNGRRGRAITGS
In the case of B15, the binding result in assay [3] is “no binding”.

B16: β′ mutant E301P (enzyme)
chain: MKDLLKFLKAQTKTEEFDAIKIALASPDMIRSWSFGEVKKPETINYRTFKPERDGLFCARIFGPVKDYECLCGKYKRLKHRGVICEKCGVEVTQTKVRRERMGHIELASPTAHIWFLKSLPSRIGLLLDMPLRDIERVLYFESYVVIEGGMTNLERQQILTEEQYLDALEEFGDEFDAKMGAEAIQALLKSMDLEQECEQLREELNETNSETKRKKLTKRIKLLEAFVQSGNKPEWMILTVLPVLPPDLRPLVPLDGGRFATSDLNDLYRRVINRNNRLKRLLDLAAPDIIVRNEKRMLQPAVDALLDNGRRGRAITGS
B16: in assay [3], the binding result is “no binding”.

B17: β′1-319 Y269A (pTA611) (enzyme)
chain: MKDLLKFLKAQTKTEEFDAIKIALASPDMIRSWSFGEVKKPETINYRTFKPERDGLFCARIFGPVKDYECLCGKYKRLKHRGVICEKCGVEVTQTKVRRERMGHIELASPTAHIWFLKSLPSRIGLLLDMPLRDIERVLYFESYVVIEGGMTNLERQQILTEEQYLDALEEFGDEFDAKMGAEAIQALLKSMDLEQECEQLREELNETNSETKRKKLTKRIKLLEAFVQSGNKPEWMILTVLPVLPPDLRPLVPLDGGRFATSDLNDLARRVINRNNRLKRLLDLAAPDIIVRNEKRMLQEAVDALLDNGRRGRAITGS
On to B17, for which the binding result in assay [3] is recorded as “binds”.

B18: His6-tagged β′33-309 (pTA531) (enzyme)
chain: WSFGEVKKPETINYRTFKPERDGLFCARIFGPVKDYECLCGKYKRLKHRGVICEKCGVEVTQTKVRRERMGHIELASPTAHIWFLKSLPSRIGLLLDMPLRDIERVLYFESYVVIEGGMTNLERQQILTEEQYLDALEEFGDEFDAKMGAEAIQALLKSMDLEQECEQLREELNETNSETKRKKLTKRIKLLEAFVQSGNKPEWMILTVLPVLPPDLRPLVPLDGGRFATSDLNDLYRRVINRNNRLKRLLDLAAPDIIVRNEKRMLQEAVDALLDN
As for B18, the binding result in assay [1] was “binds”.

Values taken from patent publication US20030104423A1 (WISCONSIN ALUMNI RESEARCH FOUNDATION, published 2003).
